B1: sdAb No. 25 (VHH)
VHH: QLQLVESGGGLVQAGGSLRLSCAASGSIESFSFMGWYRQAPGKQRELVAGFTGAASLSFSTYTDAVKGRFTISRDNAKNTVYLQMNSLKPEDTAVYFCNVDPWSQSWPGRYWGQGTQVTVSS
notes: Fc of the tested form not described; also called sdAb 25; sdAb #25; not shown: Fc part implied by anti-human Fc capture and anti-human IgG Fc detection
B2: sdAb No. 27 (VHH)
VHH: QVQLVESGGGLVQPGGSLRLSCAASGFTLDYYAIGWFRQAPGKEREGVSCIRSSDGSTYYADSVKGRFTISSDNTKNTVYLQMNSLKPEDTAVYYCATDRYSDCRGPYENWGQGTQVTVSS
notes: Fc of the tested form not described; also called sdAb 27; not shown: Fc part implied by anti-human Fc capture and anti-human IgG Fc detection
B3: sdAb No. 17 (VHH)
VHH: QLQLVESGGGLVQPGGSLRLSCAASGLTLDGYAIGWFRQAPGKEREGLACISGSDGSTHYLDSVKGRFTISRDNGKNTMALQMNSLQFGDTAIYYCAARRGSCSGSWTYWGQGTQVTVSS
notes: Fc of the tested form not described; also called sdAb 17; not shown: Fc part implied by anti-human Fc capture and anti-human IgG1 Fc detection

Tests used:
[1] = target: T1, LAG3 Protein, Human, Recombinant (His Tag) (Sino Biological Catalog No. 16498-H08H) (human, UniProt P18627 23-450); test: SPR binning on LAG3-His; competitor 25
T1 construct: Bought protein; also called hLAG3-His; LAG3-His; not shown: His tag
T1 sequence (looked up): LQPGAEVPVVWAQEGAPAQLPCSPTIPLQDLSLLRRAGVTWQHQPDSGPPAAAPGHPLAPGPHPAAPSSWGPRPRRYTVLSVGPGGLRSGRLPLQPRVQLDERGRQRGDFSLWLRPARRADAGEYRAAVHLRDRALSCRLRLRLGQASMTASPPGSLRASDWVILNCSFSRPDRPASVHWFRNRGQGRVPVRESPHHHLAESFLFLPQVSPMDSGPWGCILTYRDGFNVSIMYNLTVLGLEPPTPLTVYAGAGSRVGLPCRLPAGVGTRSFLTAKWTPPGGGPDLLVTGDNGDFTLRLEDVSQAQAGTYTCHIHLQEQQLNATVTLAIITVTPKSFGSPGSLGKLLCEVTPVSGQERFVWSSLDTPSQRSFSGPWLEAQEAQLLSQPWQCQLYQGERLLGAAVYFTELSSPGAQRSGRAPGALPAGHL
Description: (§1) The chip surface was regenerated after each cycle with 25 mM NaOH followed by HBS-EP wash provided in the kit.

[2] = target: T1, LAG3 Protein, Human, Recombinant (His …); test: SPR binning on LAG3-His; competitor 17
Description: as §1

[3] = target: T1, LAG3 Protein, Human, Recombinant (His …); test: SPR binning on LAG3-His; competitor 1
Description: as §1

[4] = target: T1, LAG3 Protein, Human, Recombinant (His …); test: SPR binning on LAG3-His; competitor 20
Description: as §1

[5] = target: T1, LAG3 Protein, Human, Recombinant (His …); test: SPR binning on LAG3-His; competitor 27
Description: as §1

[6] = target: T1, LAG3 Protein, Human, Recombinant (His …); test: SPR binning on LAG3-His; competitor 21
Description: as §1

[7] = target: T1, LAG3 Protein, Human, Recombinant (His …); test: SPR binning on LAG3-His; competitor BMS
Description: as §1

[8] = target: T1, LAG3 Protein, Human, Recombinant (His …); test: SPR (Biacore), sdAb captured by anti-human Fc, LAG3-His analyte
Description: The binding of the single domain antibodies to recombinant human LAG3 protein (rhLAG3) was examined by Biacore™ assay. […] The coating was carried out according to the manufacturer’s instructions accompanying the kit (Catalog No. BR-1008-39, GE). […] The chip surface was regenerated after each cycle with 25 mM NaOH followed by HBS-EP wash provided in the kit.

[9] = target: T1, LAG3 Protein, Human, Recombinant (His …); test: SPR binning on LAG3-His; competitor 18
Description: as §1

[10] = target: T1, LAG3 Protein, Human, Recombinant (His …); test: SPR binning on LAG3-His; competitor 37
Description: as §1

[11] = target: T1, LAG3 Protein, Human, Recombinant (His …); test: SPR binning on LAG3-His; competitor 73
Description: as §1

[12] = target: T2, human LAG3 expressed on cells (human, UniProt P18627 23-525); test: cell-based or functional assay
T2 sequence (looked up): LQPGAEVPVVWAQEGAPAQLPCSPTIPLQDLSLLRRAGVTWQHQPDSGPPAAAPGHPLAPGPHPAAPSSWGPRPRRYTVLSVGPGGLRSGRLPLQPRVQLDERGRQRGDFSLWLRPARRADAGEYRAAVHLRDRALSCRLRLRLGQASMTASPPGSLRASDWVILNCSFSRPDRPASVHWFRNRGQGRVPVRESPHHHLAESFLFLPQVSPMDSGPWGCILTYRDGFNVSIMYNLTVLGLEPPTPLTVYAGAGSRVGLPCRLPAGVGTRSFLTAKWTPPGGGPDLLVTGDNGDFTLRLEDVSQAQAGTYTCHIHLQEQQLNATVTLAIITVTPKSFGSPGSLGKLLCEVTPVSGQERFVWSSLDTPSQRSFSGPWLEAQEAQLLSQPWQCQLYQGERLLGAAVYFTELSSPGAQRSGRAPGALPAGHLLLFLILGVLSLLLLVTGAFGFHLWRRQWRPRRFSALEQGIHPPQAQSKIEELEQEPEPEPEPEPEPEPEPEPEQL

[13] = target: T2, human LAG3 expressed on cells; test: cell-based or functional assay; remark: listed apart in the source
[14] = target: T1, LAG3 Protein, Human, Recombinant (His …); test: SPR binning on LAG3-His; competitor 24
Description: as §1

Binder | RU [1] | RU [2] | RU [3] | RU [4] | RU [5] | RU [6] | RU [7] | koff [8] | kon [8] | RU [9] | RU [10] | RU [11] | IL-2, % of BMS, at 0.005080526 ug/mL [12] | IL-2, % of BMS, at 0.015241579 ug/mL [12] | IL-2, % of BMS, at 0.045724737 ug/mL [12] | IL-2, % of BMS, at 0.137174211 ug/mL [12] | IL-2, % of BMS, at 0.411522634 ug/mL [12] | IL-2, % of BMS, at 1.234567901 ug/mL [12] | IL-2, % of BMS, at 3.703703704 ug/mL [12] | IL-2, % of BMS, at 11.11111111 ug/mL [12] | further results
B1 | 7.2 RU | 41 RU | 44.7 RU | 44.6 RU | 50.9 RU | 49.3 RU | 31.7 RU | 0.000108 s⁻¹ | 6.31e+06 M⁻¹ s⁻¹ | 39 RU | 44.1 RU | 47.6 RU | 3.24% | -0.59% | 8.03% | 2.39% | 9.2% | 25.1% | 30.6% | 34.1% | Kd [8]: 0.017 nM; IL-2, % of BMS, at 33.33333333 ug/mL [12]: 39.8%; IL-2, % of BMS, at 100 ug/mL [12]: 53.7%; EC50 for IL-2 rescue, hLAG3 Jurkat T system [13]: 8.12 nM; Efficacy (IL-2 production, BMS = 100%) [13]: 43.4%; RU [14]: 46.4 RU
B2 | 34 RU | -11.7 RU | -9.1 RU | -11.7 RU | -6.2 RU | -10.1 RU | 48.2 RU | 4.09e-07 s⁻¹ | 1.17e+07 M⁻¹ s⁻¹ | -9.6 RU | -9.1 RU | -15.1 RU | 5.57% | 13.4% | 12.1% | 18% | 27.3% | 36.5% | 43.4% | 50% | IL-2, % of BMS, at 33.33333333 ug/mL [12]: 52.9%; IL-2, % of BMS, at 100 ug/mL [12]: 52.8%; EC50 for IL-2 rescue, hLAG3 Jurkat T system [13]: 8.49 nM; Efficacy (IL-2 production, BMS = 100%) [13]: 50.2%; RU [14]: -10.1 RU
B3 | 17.9 RU | -2 RU | -13.6 RU | -14.6 RU | -7 RU | -12.5 RU | 15.2 RU | 0.0012 s⁻¹ | 6.6e+06 M⁻¹ s⁻¹ | -7.5 RU | -13.4 RU | -17 RU | 5.97% | 9.56% | 9.97% | 18% | 22.3% | 26.5% | 31.4% | 38% | Kd [8]: 0.181 nM; IL-2, % of BMS, at 33.33333333 ug/mL [12]: 38%; IL-2, % of BMS, at 100 ug/mL [12]: 42.2%; EC50 for IL-2 rescue, hLAG3 Jurkat T system [13]: 7.72 nM; Efficacy (IL-2 production, BMS = 100%) [13]: 46.5%; RU [14]: -10.4 RU
